Assay [1] addresses T1, canine FDP (fibrin-fibrinogen degradation products) (canine).
T1 construct: A heterogeneous mixture
Put plainly: affinity test (RU read-out; instrument not named).

The target in assay [2] is T1, canine FDP (fibrin-fibrinogen …). Put plainly: kinetic analysis, 1:1 binding fit (RU read-out; instrument not named).

The source of these data is US20250163137A1 (UNI PHARMA, published 2025).

T1 sequence (Q9NRC9 whole entry): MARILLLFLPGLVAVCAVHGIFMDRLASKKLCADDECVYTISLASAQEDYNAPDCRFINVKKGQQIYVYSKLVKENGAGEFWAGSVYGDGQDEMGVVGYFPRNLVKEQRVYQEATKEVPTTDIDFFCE

B1: mAb 14G12-5 (antibody, V domains shown)
VH: EVQLVESGGGLVKPGGSLKLSCAASGFAFNAYDMSWVRQTPEKRLEWVAYISSSGDYTYYPDTVKGRFTVSRDNAKSTLYLHMGSLKSEDTAMYYCAVYYHYDEGLDYWGQGTALTVSS
VL: QIVLIQSPAIMSASPGEKVTMTCSASSSVNYMHWYQQKSGTSPKRWIYDTSKLASGVPARFSGSGSGTSYSLTISSMEAEDAATYYCQQWSSNPPTFGGGTKLEIKR
notes: also called 14G12-5 mAb; recombinant antibody 14G12-5
Broadly, the Kd is the constant that tells how readily two partners part at equilibrium. One may read the koff as the rate constant with which the complex falls apart. The term kon denotes the second-order rate constant of association. With B1, the Kd in assay [1] is 5030 nM. In addition, in assay [2], the equilibrium dissociation constant (Kd) worked out at 55.2 nM, the koff amounted to 0.0026 s⁻¹ and the kon worked out at 47100 M⁻¹ s⁻¹.
